Assay results: US20110054149A1

Molecular target: GST-human NOGO-A56 (human) (UniProt Q9NQC3)
Assay: SPR (Biacore 3000), GST-human NOGO-A56 on CM5 chip, antibody as analyte; single experiment

Sequence of GST-human NOGO-A56 (human) (Q9NQC3 586-785): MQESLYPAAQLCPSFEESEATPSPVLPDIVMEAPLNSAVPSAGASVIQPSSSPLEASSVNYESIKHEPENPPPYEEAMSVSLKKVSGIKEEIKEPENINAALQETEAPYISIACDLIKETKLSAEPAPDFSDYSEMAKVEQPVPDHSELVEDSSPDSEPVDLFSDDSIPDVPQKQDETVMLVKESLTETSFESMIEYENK

- Kd: 0.057 nM
- koff: 8.25e-05 s⁻¹
- kon: 1.44e+06 M⁻¹ s⁻¹
Substance: 11C7 (chimeric version) (antibody)
